No end group written: not given here.
Experiments:
Test in all cases: ELISA; biotinylated HBc87-95 on 96-well streptavidin plates; serial dilutions of gp96 0.03–200 μg/mL in 20 mM HEPES pH 7.2, 20 mM NaCl, 2 mM MgCl2, 100 mM KCl, 1.5 h; detected with rat anti-grp94 antibody; 300 μM radicicol as inhibitor
Conditions in all cases: both partners purified
[1] = molecular target: T1, gp96 with Ala substitutions at the conserved residues in the first half of the CBD (gp96-mut), His-tagged (human, UniProt P14625 22-803, GWSGNMER (653-660) to AASAAAAA, read from the printed gp96-mut primer, FITC label on the portion used for flow cytometry (sites not given))
T1 construct: human gp96 (GRP94), mature protein, with Ala substitutions in the GWXGNMER motif of the CBD; positions follow the legend's 653-660 for the same eight residues deleted in gp96-ΔCBD; also called mutated gp96; mutant gp96; source: baculovirus (Bac-to-Bac, pFastBac1), purified (Ni-sepharose, Hitrap Q HP, Superdex 200)
T1 sequence (P14625 other isoform, or with tags, fused parts or gaps with the stated changes): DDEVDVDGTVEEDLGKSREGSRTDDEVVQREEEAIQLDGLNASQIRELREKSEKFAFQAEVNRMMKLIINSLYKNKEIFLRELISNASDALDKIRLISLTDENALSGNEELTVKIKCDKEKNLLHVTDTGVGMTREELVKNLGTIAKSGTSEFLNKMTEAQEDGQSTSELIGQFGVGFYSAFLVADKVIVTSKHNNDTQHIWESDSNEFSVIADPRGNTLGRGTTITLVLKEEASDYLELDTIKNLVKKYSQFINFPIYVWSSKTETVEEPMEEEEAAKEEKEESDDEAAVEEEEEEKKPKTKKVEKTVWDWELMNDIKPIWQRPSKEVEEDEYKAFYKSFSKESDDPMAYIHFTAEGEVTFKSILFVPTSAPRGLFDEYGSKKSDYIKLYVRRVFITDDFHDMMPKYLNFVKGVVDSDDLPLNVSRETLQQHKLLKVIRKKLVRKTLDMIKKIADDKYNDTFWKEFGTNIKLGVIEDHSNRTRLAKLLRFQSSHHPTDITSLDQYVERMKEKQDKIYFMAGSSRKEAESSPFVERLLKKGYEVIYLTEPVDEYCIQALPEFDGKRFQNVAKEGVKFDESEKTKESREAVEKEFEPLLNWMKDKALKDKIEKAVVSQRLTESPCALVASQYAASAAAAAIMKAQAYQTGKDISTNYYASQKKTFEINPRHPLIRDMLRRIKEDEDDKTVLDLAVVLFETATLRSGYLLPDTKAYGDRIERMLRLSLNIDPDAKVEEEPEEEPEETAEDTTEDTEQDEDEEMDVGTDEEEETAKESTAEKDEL

[2] = molecular target: T2, recombinant wild-type gp96 (gp96-wt), His-tagged (human, UniProt P14625 22-803, FITC label on the portion used for flow cytometry (sites not given))
T2 construct: human gp96 (GRP94), mature protein; cDNA in pET28a(+) subcloned with its His tag into pFastBac1; the 3' primer ends at ...EKDEL stop; The tag's end is read from the printed sense primer (MGSSHH..., as in pET28a); Unlabelled in the co-IP and ELISA, FITC-labelled in flow cytometry; also called FITC-gp96-wt; glucose-regulated protein 94; source: baculovirus (Bac-to-Bac, pFastBac1), purified …
T2 sequence (P14625 22-803): as the sequence (P14625 other isoform, or with tags, fused parts or gaps with the stated changes) above, with A632G, A633W, A635G, A636N, A637M, A638E, A639R counted along it

[3] = molecular target: T3, native mouse gp96 (mgp96) (mouse, UniProt P08113 22-802)
T3 construct: gp96 (GRP94, endoplasmin) purified from mouse liver; also called native gp96; source: purified from healthy mouse livers
T3 sequence (P08113 22-802): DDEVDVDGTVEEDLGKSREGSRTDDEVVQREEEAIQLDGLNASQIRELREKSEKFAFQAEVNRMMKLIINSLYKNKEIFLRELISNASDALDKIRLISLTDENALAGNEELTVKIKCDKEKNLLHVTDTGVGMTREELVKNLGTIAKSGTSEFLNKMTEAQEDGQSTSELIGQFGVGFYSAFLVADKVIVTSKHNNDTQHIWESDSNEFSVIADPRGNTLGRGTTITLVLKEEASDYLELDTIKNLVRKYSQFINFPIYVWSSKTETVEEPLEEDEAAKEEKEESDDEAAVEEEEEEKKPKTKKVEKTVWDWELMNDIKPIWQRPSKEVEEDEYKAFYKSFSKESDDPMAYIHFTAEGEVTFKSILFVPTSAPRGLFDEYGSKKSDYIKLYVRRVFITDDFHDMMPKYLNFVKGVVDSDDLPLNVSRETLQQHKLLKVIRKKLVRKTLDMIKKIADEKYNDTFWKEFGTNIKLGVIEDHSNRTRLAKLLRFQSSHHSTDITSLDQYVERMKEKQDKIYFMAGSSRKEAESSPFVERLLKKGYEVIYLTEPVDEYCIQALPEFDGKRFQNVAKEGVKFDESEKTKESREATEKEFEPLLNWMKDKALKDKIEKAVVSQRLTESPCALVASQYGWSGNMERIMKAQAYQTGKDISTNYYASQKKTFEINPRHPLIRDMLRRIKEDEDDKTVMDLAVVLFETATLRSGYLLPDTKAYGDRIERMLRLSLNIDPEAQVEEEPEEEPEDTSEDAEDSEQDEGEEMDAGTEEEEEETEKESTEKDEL

Measured: binding result

B1: biotinylated peptide HBc87-95 (peptide)
peptide: SYVNTNMGL
modifications: also: biotinylated, position not given here
notes: also called HBcAg_(87–95); source: synthetic peptide (GL Biochem Ltd.)
binds: all assays above

Source: PMC4868323, “Interaction of Toll-Like Receptors with the Molecular Chaperone Gp96 Is Essential for Its Activation of Cytotoxic T Lymphocyte Response” (PLoS ONE, 2016)
